Assays:
[1] = target: LI-LASV-pfGP soluble ectodomain monomer (lineage I Lassa virus prefusion glycoprotein) (Lassa virus lineage I, strain Pinneo, stabilised); test: BLI; Octet Red384; […] (AHC) capture sensors at 2.5 ug/mL; […]; 1x kinetics buffer (PBS, 0.1% BSA, 0.02% Tween 20); 1:1 fit; […]; conditions: both partners purified
[2] = target: LIV-GP, soluble lineage IV LASV pfGP monomer (Lassa virus lineage IV, strain Josiah, stabilised); test: as above; conditions: both partners purified

Binder	Kd [1]	koff [1]	kon [1]	Kd [2]	koff [2]	kon [2]
GPC-A antibody 25.10C (IgG) (antibody, V domains shown, copies: 2 + 2) VH: QVQLQESGGGLVKPGGSLRLSCTASGFNFNKYNMNWVRQAPGKGLEWVSSISALSTYIYYADSLKGRFTVSRDNAKNSLFLQMNSLRDDDTAVYYCAREIRRASTWSADLWGRGTLVTVSS VL: DIQMTQSPSSLSASVGDRVIITCRASQSISSSLNWYQQKPGKAPKLLIYAAVNLETGVPSRFSGSGFGTDFTLAISNVQPEDFATYYCQQSDTRTFGRGTKLDVK	3.52 nM	0.000387 s⁻¹	110000 M⁻¹ s⁻¹	< 0.001 nM	< 1e-07 s⁻¹	150000 M⁻¹ s⁻¹
GPC-B antibody 18.5C (IgG) (antibody, V domains shown, copies: 2 + 2) VH: EVQLVQSGGGLVRPGGSLRLSCAAAGFTFKSYSMNWVRQAPGRGLEWVSSITSGGSKTYYADVVKGRFTVSRDNAKQSLYLQMNSLRAEDTAIYFCARSLHSTSQPSYMDVWGRKITVIVSS VL: DIVLTQSPGTLSLSPGERATLSCRASQSVISYYVAWYQHKGGQAPRLLIYGASSRATGVPDRFSGSGSGTDFTLTISSLEPEDFALYYCQYYGSSPLWAFGQGTKVEIK	2.86 nM	0.00235 s⁻¹	819000 M⁻¹ s⁻¹	0.091 nM	7.8e-05 s⁻¹	858000 M⁻¹ s⁻¹
engineered GPC-B antibody 18.5C-M30 (IgG) (antibody, V domains shown, copies: 2 + 2) VH: EVQLVQSGGGLVRPGGSLRLSCAAAGFTFKSYSMNWVRQAPGRGLEWVSSITSRGGSKTYYADVVKGRFTVSRDNAKQSLYLQMNSLRAEDTAIYFCARSRHSTSQPSYMDVWGRKITVIVSS VL: DIVLTQSPGTLSLSPGERATLSCRASQSVISYYVAWYQHKGGQAPRLLIYGASSRATGVPDRFSGSGSGTDFTLTISSLEPEDFALYYCQYYGSSPLWAFGQGTKVEIK	0.559 nM	0.000423 s⁻¹	757000 M⁻¹ s⁻¹	0.047 nM	3.67e-05 s⁻¹	780000 M⁻¹ s⁻¹
